This passage reports Kd results from article PMC8809517, “Cofactor-independent RNA editing by a synthetic S-type PPR protein”.

Experiment in all cases: high-throughput RNA pulldown from lysate on Ni-NTA beads; HRP: 50 mM Tris pH 8, 150 mM NaCl, 1 mM beta-mercaptoethanol, 50 ug/ml BSA, 3 ug/ml yeast RNA, 0.5% heparin; ITC and FP: Tris pH 8, 200 mM KCl, 5% glycerol; MST: 50 mM Tris pH 8, 200 mM NaCl, 1 mM DTT, BSA, heparin, 0.05% Tween 20
Common to all, as to conditions: tags: N-terminal His-eGFP

In data set [1] the target is T1, GFP-9S library array, motif 4 ND N98G;D124P (synthetic construct, N98G;D124P).
T1 chain: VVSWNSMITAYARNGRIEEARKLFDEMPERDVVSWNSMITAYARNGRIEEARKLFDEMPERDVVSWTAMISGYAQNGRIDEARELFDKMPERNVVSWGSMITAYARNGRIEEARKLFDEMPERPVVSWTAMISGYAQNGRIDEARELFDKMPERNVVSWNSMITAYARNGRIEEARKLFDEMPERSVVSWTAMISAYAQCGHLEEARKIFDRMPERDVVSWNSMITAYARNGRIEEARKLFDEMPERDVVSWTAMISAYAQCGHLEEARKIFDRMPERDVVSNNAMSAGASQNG

The target of data set [2] is T2, GFP-9S library array, motif 4 ND N98R (synthetic construct, N98R).
T2 chain: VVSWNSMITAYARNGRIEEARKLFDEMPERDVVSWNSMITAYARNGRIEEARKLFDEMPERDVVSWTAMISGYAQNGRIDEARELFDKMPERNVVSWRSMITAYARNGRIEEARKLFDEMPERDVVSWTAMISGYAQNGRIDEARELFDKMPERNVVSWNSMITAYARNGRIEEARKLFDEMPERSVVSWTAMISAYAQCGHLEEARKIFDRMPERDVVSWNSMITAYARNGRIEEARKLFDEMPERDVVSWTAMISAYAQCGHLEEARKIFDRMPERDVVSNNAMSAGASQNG

Data set [3] deals with T3, GFP-9S library array, motif 4 ND N98R;D124P (synthetic construct, N98R;D124P).
T3 chain: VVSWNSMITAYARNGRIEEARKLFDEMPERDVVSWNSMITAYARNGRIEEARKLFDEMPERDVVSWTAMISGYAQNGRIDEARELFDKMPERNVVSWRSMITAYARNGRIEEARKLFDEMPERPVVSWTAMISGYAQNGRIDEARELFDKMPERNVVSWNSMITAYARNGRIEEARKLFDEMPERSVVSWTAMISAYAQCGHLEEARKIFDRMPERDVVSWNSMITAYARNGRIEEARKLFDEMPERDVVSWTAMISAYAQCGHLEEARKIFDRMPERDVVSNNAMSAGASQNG

Data set [4] deals with T4, GFP-9S library array, motif 4 ND N98K;D124I (synthetic construct, N98K;D124I).
T4 chain: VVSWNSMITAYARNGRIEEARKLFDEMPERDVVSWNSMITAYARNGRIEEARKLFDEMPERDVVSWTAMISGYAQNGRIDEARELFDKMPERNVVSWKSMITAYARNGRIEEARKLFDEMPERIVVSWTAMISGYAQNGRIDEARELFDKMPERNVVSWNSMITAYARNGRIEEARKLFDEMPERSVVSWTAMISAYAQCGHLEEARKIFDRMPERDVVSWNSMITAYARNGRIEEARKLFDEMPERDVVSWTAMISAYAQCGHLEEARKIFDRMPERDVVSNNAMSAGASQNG

Data set [5] addresses T5, GFP-9S library array, motif 4 ND N98A;D124V (synthetic construct, N98A;D124V).
T5 chain: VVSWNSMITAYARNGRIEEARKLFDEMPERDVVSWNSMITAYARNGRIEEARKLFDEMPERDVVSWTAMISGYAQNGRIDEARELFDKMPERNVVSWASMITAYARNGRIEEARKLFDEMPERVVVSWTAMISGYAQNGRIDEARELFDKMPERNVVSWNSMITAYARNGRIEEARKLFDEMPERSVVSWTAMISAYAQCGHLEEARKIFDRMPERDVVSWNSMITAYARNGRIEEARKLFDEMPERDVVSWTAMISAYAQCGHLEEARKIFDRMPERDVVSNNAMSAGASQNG

As to AUUAUACGUGA (ssRNA) [IR-rpoA-U], the Kd in data set [1] (label: 5' IRDye 800CW) was found to be 128 nM; in data set [2] (label: 5' IRDye 800CW) it was 428 nM; in data set [3] (label: 5' IRDye 800CW), 163 nM; in data set [4] (label: 5' IRDye 800CW), 252 nM; in data set [5] (label: 5' IRDye 800CW), 152 nM.
As to AUUAAACGUGA (ssRNA) [IR-rpoA-A], the Kd in data set [1] (label: 5' IRDye 800CW) stood at 179 nM; in data set [2] (label: 5' IRDye 800CW), 645 nM; in data set [3] (label: 5' IRDye 800CW), 335 nM; in data set [4] (label: 5' IRDye 800CW), 560 nM; in data set [5] (label: 5' IRDye 800CW), 497 nM.
For the molecule AUUACACGUGA (ssRNA) [Cy5-rpoA], the Kd in data set [1] (label: 5' Cy5) came to 85.9 nM; in data set [2] (label: 5' Cy5), 207 nM; in data set [3] (label: 5' Cy5) it was 143 nM; in data set [4] (label: 5' Cy5), 130 nM; in data set [5] (label: 5' Cy5), 91.2 nM.
AUUAGACGUGA (ssRNA) [Cy5-rpoA-G]: the Kd is 127 nM in data set [1] (label: 5' Cy5); 253 nM in data set [2] (label: 5' Cy5); 151 nM in data set [3] (label: 5' Cy5); 167 nM in data set [4] (label: 5' Cy5); 124 nM in data set [5] (label: 5' Cy5).
